This data set concerns the molecule itself. Description: cross-linking; 35 µM protein in 50 mM phosphate pH 7.4, 150 mM NaCl, preincubated at 37°C for 30 min; BS2G d0/d4 at 20-fold molar excess (50- and 100-fold also tested), 1 h on ice, quenched with Tris; read by 4-20% SDS-PAGE with Coomassie stain.

B1: Human recombinant αA-G98R crystallin (natural protein, UniProt P02489 1-173, looked up)
chain: MDVTIQHPWFKRTLGPFYPSRLFDQFFGEGLFEYDLLPFLSSTISPYYRQSLFRTVLDSGISEVRSDRDKFVIFLDVKHFSPEDLTVKVQDDFVEIHRKHNERQDDHGYISREFHRRYRLPSNVDQSALSCSLSADGMLTFCGPKIQTGLDATHAERAIPVSREEKPTSAPSS
Consider B1, for which the binding result is reported as “binds”.

The values above are taken from PMC3673982 (PLoS ONE, 2013).
